Data as given in article PMC11470957, “Principles of paralog-specific targeted protein degradation engaging the C-degron E3 KLHDC2” (Nature Communications, 2024).

B1: KLHDC2 substrate binding domain (KLHDC2^SBD, 15-361) [not stated] / BRD3^BD2 (second bromodomain of BRD3, residues 306-416) [not stated] (parent)
chain 1: GPAFESYESMELACPAERSGHVAVSDGRHMFVWGGYKSNQVRGLYDFYLPREELWIYNMETGRWKKINTEGDVPPSMSGSCAVCVDRVLYLFGGHHSRGNTNKFYMLDSRSTDRVLQWERIDCQGIPPSSKDKLGVWVYKNKLIFFGGYGYLPEDKVLGTFEFDETSFWNSSHPRGWNDHVHILDTETFTWSQPITTGKAPSPRAAHACATVGNRGFVFGGRYRDARMNDLHYLNLDTWEWNELIPQGICPVGRSWHSLTPVSSDHLFLFGGFTTDKQPLSDAWTYCISKNEWIQFNHPYTEKPRLWHTACASDEGEVIVFGGCANNLLVHHRAAHSNEILIFSVQP
chain 2: GKLSEHLRYCDSILREMLSKKHAAYAWPFYKPVDAEALELHDYHDIIKHPMDLSTVKRKMDGREYPDAQGFAADVRLMFSNCYKYNPPDHEVVAMARKLQDVFEMRFAKMP

Variants of: B1
Assay: ITC
Settings: with BRD3^BD2 (second bromodomain of BRD3, residues 306-416); syringe: R56A KLHDC2SBD; cell: BRD3BD2-SJ46421 (ternary complex via PROTAC SJ46421); n = 2

| Variant | Kd |
| --- | --- |
| chain 1 GPAFESYESMELACPAERSGHVAVSDGRHMFVWGGYKSNQVAGLYDFYLPREELWIYNMETGRWKKINTEGDVPPSMSGSCAVCVDRVLYLFGGHHSRGNTNKFYMLDSRSTDRVLQWERIDCQGIPPSSKDKLGVWVYKNKLIFFGGYGYLPEDKVLGTFEFDETSFWNSSHPRGWNDHVHILDTETFTWSQPITTGKAPSPRAAHACATVGNRGFVFGGRYRDARMNDLHYLNLDTWEWNELIPQGICPVGRSWHSLTPVSSDHLFLFGGFTTDKQPLSDAWTYCISKNEWIQFNHPYTEKPRLWHTACASDEGEVIVFGGCANNLLVHHRAAHSNEILIFSVQP [chain 1 R42A] | 273 nM |

Same assay, conditions: with KLHDC2 substrate binding domain (KLHDC2^SBD, 15-361); syringe: KLHDC2SBD; cell: E344G BRD3BD2-SJ46421 (ternary complex via PROTAC SJ46421); n = 2

| Variant | Kd |
| --- | --- |
| chain 2 E39G | 181 nM |
